B1: Speckle-type POZ protein (Homo sapiens), O43791 (parent)
chain: MSRVPSPPPPAEMSSGPVAESWCYTQIKVVKFSYMWTINNFSFCREEMGEVIKSSTFSSGANDKLKWCLRVNPKGLDEESKDYLSLYLLLVSCPKSEVRAKFKFSILNAKGEETKAMESQRAYRFVQGKDWGFKKFIRRDFLLDEANGLLPDDKLTLFCEVSVVQDSVNISGQNTMNMVKVPECRLADELGGLWENSRFTDCCLCVAGQEFQAHKAILAARSPVFSAMFEHEMEESKKNRVEINDVEPEVFKEMMCFIYTGKAPNLDKMADDLLAAADKYALERLKVMCEDALCSNLSVENAAEILILADLHSADQLKTQAVDFINYHASDVLETSGWKSMVVSHPHLVAEAYRSLASAQCPFLGPPRKRLKQS

Variants of: B1
Conditions: with e2f5_human E2F5, Q15329

| effect of a mutation on the interaction | Variant |
| --- | --- |
| with no effect | F102C |

Variants of: B1
Conditions: with e2f6_human E2F6, O75461

| effect of a mutation on the interaction | Variant |
| --- | --- |
| with no effect | F102C |

Variants of: B1
Conditions: with e2f8_human E2F8, A0AVK6

| effect of a mutation on the interaction | Variant |
| --- | --- |
| with no effect | F102C |

Variants of: B1
Conditions: with if4e_human EIF4E

| effect of a mutation on the interaction | Variant |
| --- | --- |
| with no effect | F102C |

Variants of: B1
Conditions: with epha7_human EPHA7, Q15375

| effect of a mutation on the interaction | Variant |
| --- | --- |
| with no effect | F102C |

Variants of: B1
Conditions: with ephb1_human EPHB1, P54762

| effect of a mutation on the interaction | Variant |
| --- | --- |
| with no effect | F102C |

Variants of: B1
Conditions: with erbb3_human ERBB3, P21860

| effect of a mutation on the interaction | Variant |
| --- | --- |
| with no effect | F102C |

Variants of: B1
Conditions: with erbb4_human ERBB4, Q15303
erbb4_human ERBB4, Q15303, sequence (Q15303 whole entry): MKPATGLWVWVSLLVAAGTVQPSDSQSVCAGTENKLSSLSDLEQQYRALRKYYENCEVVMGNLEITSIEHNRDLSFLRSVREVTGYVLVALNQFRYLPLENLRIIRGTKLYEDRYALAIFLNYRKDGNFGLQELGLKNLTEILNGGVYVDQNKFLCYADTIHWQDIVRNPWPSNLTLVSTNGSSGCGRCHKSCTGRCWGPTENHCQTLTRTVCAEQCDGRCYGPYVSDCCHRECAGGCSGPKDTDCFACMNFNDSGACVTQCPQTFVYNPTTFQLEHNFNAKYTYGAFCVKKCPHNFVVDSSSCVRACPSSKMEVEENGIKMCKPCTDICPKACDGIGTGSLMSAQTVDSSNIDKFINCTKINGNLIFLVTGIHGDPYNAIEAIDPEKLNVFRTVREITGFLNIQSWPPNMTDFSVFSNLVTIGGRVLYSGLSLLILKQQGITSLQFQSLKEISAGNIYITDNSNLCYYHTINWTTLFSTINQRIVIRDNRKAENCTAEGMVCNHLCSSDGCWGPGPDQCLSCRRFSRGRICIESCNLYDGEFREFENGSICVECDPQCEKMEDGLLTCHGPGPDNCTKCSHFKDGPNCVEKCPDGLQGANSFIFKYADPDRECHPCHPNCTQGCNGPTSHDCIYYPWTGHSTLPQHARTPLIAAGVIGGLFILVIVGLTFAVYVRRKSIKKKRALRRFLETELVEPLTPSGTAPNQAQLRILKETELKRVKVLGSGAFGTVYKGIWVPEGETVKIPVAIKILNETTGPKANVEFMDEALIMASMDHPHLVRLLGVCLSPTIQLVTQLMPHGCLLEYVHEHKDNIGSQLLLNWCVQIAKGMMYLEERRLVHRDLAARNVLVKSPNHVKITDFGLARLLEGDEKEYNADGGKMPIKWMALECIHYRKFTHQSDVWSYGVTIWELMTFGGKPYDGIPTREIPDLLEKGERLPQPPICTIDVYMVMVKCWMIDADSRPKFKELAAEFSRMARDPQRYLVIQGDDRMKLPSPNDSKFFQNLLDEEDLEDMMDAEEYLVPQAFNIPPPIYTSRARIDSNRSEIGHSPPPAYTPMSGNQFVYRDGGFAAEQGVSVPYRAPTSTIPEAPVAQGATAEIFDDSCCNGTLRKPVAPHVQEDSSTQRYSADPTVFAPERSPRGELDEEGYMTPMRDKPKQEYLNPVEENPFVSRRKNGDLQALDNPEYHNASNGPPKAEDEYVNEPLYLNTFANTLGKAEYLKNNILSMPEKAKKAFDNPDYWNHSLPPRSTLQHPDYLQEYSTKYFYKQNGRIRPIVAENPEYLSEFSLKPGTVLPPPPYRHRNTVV

| effect of a mutation on the interaction | Variant |
| --- | --- |
| with no effect | F102C |

Variants of: B1
Conditions: with esr1_human ESR1, P03372

| effect of a mutation on the interaction | Variant |
| --- | --- |
| with no effect | F102C |

Variants of: B1
Conditions: with etv1_human ETV1, P50549

| effect of a mutation on the interaction | Variant |
| --- | --- |
| with no effect | F102C |

Variants of: B1
Conditions: with ezh1_human EZH1, Q92800

| effect of a mutation on the interaction | Variant |
| --- | --- |
| with no effect | F102C |

Variants of: B1
Conditions: with ezh2_human EZH2, Q15910
ezh2_human EZH2, Q15910, sequence (Q15910 whole entry, looked up): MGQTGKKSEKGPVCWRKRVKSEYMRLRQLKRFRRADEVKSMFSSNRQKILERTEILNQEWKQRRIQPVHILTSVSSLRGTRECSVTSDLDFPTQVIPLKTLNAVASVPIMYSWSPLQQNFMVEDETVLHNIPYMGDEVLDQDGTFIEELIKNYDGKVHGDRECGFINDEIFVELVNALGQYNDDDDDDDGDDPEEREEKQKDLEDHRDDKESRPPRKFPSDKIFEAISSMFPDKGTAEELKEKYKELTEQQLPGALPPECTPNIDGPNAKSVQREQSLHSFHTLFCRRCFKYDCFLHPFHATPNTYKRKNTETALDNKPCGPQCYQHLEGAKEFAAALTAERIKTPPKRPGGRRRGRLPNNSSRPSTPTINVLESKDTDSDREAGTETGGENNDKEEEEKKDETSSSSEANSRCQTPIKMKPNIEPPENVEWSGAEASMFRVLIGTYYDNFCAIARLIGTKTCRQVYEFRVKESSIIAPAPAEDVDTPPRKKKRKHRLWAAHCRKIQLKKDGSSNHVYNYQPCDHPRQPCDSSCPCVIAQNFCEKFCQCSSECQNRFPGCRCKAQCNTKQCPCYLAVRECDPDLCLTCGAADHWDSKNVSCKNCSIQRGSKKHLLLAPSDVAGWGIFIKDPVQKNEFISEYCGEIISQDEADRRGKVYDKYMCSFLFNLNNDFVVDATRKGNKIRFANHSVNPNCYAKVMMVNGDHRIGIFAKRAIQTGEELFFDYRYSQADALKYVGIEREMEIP

| effect of a mutation on the interaction | Variant |
| --- | --- |
| with no effect | F102C |

Variants of: B1
Conditions: with facd2_human FANCD2, Q9BXW9
facd2_human FANCD2, Q9BXW9, sequence (Q9BXW9 whole entry): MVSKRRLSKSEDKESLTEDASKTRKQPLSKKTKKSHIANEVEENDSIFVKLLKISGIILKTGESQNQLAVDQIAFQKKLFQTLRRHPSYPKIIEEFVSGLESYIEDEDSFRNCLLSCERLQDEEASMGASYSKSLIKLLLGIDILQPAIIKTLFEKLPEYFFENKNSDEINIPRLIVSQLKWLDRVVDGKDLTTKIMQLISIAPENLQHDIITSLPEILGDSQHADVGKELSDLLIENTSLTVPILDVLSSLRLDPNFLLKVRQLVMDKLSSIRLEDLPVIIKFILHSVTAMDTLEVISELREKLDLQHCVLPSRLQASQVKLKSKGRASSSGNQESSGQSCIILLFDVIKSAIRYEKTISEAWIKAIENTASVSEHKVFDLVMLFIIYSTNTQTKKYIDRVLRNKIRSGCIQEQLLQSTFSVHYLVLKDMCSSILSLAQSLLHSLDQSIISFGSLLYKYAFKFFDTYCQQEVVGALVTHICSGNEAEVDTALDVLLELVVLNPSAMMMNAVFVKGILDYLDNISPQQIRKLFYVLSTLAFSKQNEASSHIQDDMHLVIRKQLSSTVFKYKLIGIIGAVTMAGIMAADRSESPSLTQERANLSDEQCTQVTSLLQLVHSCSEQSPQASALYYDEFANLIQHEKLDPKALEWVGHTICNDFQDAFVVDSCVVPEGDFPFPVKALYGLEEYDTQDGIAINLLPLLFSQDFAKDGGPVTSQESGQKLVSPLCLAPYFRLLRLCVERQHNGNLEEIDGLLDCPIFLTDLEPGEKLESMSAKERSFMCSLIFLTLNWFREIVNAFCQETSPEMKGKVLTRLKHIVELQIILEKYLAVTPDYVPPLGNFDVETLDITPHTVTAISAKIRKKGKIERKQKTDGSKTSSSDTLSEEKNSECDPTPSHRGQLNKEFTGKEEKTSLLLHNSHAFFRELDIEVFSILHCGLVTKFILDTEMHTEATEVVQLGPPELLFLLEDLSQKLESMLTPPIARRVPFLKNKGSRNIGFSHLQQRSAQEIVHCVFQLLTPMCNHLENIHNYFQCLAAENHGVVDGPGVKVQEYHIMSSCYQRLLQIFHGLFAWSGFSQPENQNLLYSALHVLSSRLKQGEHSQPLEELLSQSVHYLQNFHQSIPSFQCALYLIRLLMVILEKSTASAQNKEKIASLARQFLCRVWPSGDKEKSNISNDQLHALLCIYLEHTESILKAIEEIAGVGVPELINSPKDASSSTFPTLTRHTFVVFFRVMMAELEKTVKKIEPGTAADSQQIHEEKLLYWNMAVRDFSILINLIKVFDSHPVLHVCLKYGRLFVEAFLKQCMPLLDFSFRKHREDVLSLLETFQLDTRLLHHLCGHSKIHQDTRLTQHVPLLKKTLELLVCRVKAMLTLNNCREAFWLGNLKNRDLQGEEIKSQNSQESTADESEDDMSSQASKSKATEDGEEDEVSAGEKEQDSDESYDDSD

| effect of a mutation on the interaction | Variant |
| --- | --- |
| with no effect | F102C |

Variants of: B1
Conditions: with fgf19_human FGF19, O95750

| effect of a mutation on the interaction | Variant |
| --- | --- |
| with no effect | F102C |

Variants of: B1
Conditions: with fgfp1_human FGFBP1, Q14512

| effect of a mutation on the interaction | Variant |
| --- | --- |
| with no effect | F102C |

Variants of: B1
Conditions: with fgfr4_human FGFR4, P22455

| effect of a mutation on the interaction | Variant |
| --- | --- |
| with no effect | F102C |

Variants of: B1
Conditions: with fumh_human FH

| effect of a mutation on the interaction | Variant |
| --- | --- |
| with no effect | F102C |

Variants of: B1
Conditions: with fzr1_human FZR1, Q9UM11

| effect of a mutation on the interaction | Variant |
| --- | --- |
| with no effect | F102C |

Variants of: B1
Conditions: with gbra6_human GABRA6, Q16445

| effect of a mutation on the interaction | Variant |
| --- | --- |
| with no effect | F102C |

Variants of: B1
Conditions: with gata1_human GATA1, P15976

| effect of a mutation on the interaction | Variant |
| --- | --- |
| with no effect | F102C |

Variants of: B1
Conditions: with p66b_human GATAD2B

| effect of a mutation on the interaction | Variant |
| --- | --- |
| with no effect | F102C |

Variants of: B1
Conditions: with gna11_human GNA11, P29992
gna11_human GNA11, P29992, sequence (P29992 whole entry): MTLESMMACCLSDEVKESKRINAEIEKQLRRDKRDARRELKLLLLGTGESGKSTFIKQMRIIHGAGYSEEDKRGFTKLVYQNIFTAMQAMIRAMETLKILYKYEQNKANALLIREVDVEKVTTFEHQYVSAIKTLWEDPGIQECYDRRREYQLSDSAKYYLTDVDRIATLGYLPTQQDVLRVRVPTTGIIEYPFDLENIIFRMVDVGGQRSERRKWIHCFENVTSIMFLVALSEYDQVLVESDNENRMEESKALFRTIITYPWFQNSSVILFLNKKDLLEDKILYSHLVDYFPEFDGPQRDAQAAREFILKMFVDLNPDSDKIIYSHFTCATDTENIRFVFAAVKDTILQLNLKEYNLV

| effect of a mutation on the interaction | Variant |
| --- | --- |
| with no effect | F102C |

Variants of: B1
Conditions: with gna13_human GNA13, Q14344
gna13_human GNA13, Q14344, sequence (Q14344 whole entry): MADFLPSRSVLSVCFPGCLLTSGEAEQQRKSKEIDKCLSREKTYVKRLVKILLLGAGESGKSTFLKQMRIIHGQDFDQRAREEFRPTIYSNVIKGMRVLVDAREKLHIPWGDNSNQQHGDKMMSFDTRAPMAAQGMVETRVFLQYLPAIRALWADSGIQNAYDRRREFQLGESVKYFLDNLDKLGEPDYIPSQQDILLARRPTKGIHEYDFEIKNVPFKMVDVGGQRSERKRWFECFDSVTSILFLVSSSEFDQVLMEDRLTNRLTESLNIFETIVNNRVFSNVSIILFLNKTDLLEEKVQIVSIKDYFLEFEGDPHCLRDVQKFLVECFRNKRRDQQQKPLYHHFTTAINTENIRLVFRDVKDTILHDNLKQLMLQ

| effect of a mutation on the interaction | Variant |
| --- | --- |
| with no effect | F102C |

Variants of: B1
Conditions: with gnaq_human GNAQ

| effect of a mutation on the interaction | Variant |
| --- | --- |
| with no effect | F102C |

Variants of: B1
Conditions: with grm1_human GRM1, Q13255

| effect of a mutation on the interaction | Variant |
| --- | --- |
| with no effect | F102C |

Variants of: B1
Conditions: with grm3_human GRM3, Q14832

| effect of a mutation on the interaction | Variant |
| --- | --- |
| with no effect | F102C |

Variants of: B1
Conditions: with gtpb4_human GTPBP4, Q9BZE4

| effect of a mutation on the interaction | Variant |
| --- | --- |
| with no effect | F102C |

Variants of: B1
Conditions: with h33_human H3-3A

| effect of a mutation on the interaction | Variant |
| --- | --- |
| with no effect | F102C |

Variants of: B1
Conditions: with hdac1_human HDAC1, Q13547

| effect of a mutation on the interaction | Variant |
| --- | --- |
| with no effect | F102C |

Variants of: B1
Conditions: with hdac3_human HDAC3, O15379

| effect of a mutation on the interaction | Variant |
| --- | --- |
| with no effect | F102C |

Variants of: B1
Conditions: with hgf_human HGF

| effect of a mutation on the interaction | Variant |
| --- | --- |
| with no effect | F102C |

Variants of: B1
Conditions: with h31_human H3C1, P68431

| effect of a mutation on the interaction | Variant |
| --- | --- |
| with no effect | F102C |

Variants of: B1
Conditions: with hlab_human HLA-B

| effect of a mutation on the interaction | Variant |
| --- | --- |
| with no effect | F102C |

Variants of: B1
Conditions: with il7ra_human IL7R

| effect of a mutation on the interaction | Variant |
| --- | --- |
| with no effect | F102C |

Variants of: B1
Conditions: with int12_human INTS12, Q96CB8
int12_human INTS12, Q96CB8, sequence (Q96CB8 whole entry): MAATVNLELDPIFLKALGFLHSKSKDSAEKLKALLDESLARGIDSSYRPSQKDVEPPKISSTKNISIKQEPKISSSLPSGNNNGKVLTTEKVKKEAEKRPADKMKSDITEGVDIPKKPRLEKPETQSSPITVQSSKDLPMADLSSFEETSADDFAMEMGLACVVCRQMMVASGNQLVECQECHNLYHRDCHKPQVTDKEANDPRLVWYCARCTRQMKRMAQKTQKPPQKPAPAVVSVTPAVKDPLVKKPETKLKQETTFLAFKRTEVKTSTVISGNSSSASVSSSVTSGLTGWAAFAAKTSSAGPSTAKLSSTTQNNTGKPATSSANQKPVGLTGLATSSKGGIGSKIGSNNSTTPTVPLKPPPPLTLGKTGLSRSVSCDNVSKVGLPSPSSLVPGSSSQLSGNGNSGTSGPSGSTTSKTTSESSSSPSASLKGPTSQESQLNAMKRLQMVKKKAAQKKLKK

| effect of a mutation on the interaction | Variant |
| --- | --- |
| with no effect | F102C |

Variants of: B1
Conditions: with jak1_human JAK1, P23458

| effect of a mutation on the interaction | Variant |
| --- | --- |
| with no effect | F102C |

Variants of: B1
Conditions: with jak3_human JAK3, P52333

| effect of a mutation on the interaction | Variant |
| --- | --- |
| with no effect | F102C |

Variants of: B1
Conditions: with kat2a_human KAT2A

| effect of a mutation on the interaction | Variant |
| --- | --- |
| with no effect | F102C |

Variants of: B1
Conditions: with kdm5a_human KDM5A

| effect of a mutation on the interaction | Variant |
| --- | --- |
| with no effect | F102C |

Variants of: B1
Conditions: with kdm5c_human KDM5C

| effect of a mutation on the interaction | Variant |
| --- | --- |
| with no effect | F102C |

Variants of: B1
Conditions: with kdm6a_human KDM6A

| effect of a mutation on the interaction | Variant |
| --- | --- |
| with no effect | F102C |

Variants of: B1
Conditions: with vgfr2_human KDR

| effect of a mutation on the interaction | Variant |
| --- | --- |
| with no effect | F102C |

Variants of: B1
Conditions: with lims1_human LIMS1, P48059
lims1_human LIMS1, P48059, sequence (P48059 whole entry): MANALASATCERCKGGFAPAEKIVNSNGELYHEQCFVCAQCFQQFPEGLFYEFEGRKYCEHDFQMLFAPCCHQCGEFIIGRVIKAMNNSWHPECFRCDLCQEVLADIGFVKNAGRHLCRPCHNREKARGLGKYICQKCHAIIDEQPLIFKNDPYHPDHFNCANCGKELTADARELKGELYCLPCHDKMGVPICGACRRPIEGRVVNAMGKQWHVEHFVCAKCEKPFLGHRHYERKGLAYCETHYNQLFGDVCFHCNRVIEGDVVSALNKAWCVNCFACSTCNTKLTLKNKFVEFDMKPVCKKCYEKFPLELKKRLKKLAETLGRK

| effect of a mutation on the interaction | Variant |
| --- | --- |
| with no effect | F102C |

Variants of: B1
Conditions: with maga6_human MAGEA6, P43360

| effect of a mutation on the interaction | Variant |
| --- | --- |
| with no effect | F102C |

Variants of: B1
Conditions: with m3k1_human MAP3K1, Q13233

| effect of a mutation on the interaction | Variant |
| --- | --- |
| with no effect | F102C |

From IntAct's records for PubMed 35512704
